Test [1] has as its target T1, cFAP (mixture of three FAP peptides) (human).
T1 construct: A mixture of three separate peptides coated together, not a complex; The three chains are the three components; also called directly coated FAP peptides mixture
T1 peptide 1: HYIKDTVENAIQITS
T1 peptide 2: GWSYGGYVSSLALAS
T1 peptide 3: QVDFQAMWYSDQNHGL
The test can be described thus: direct ELISA: coated mixture of three FAP peptides (cFAP).

Test [2] addresses T2, recombinant human Fibroblast Activation Protein (FAP) with N-terminus 6x histidine tag (human, UniProt Q12884 26-760).
T2 construct: Bought protein; also called rFAP; rhFAP
T2 sequence: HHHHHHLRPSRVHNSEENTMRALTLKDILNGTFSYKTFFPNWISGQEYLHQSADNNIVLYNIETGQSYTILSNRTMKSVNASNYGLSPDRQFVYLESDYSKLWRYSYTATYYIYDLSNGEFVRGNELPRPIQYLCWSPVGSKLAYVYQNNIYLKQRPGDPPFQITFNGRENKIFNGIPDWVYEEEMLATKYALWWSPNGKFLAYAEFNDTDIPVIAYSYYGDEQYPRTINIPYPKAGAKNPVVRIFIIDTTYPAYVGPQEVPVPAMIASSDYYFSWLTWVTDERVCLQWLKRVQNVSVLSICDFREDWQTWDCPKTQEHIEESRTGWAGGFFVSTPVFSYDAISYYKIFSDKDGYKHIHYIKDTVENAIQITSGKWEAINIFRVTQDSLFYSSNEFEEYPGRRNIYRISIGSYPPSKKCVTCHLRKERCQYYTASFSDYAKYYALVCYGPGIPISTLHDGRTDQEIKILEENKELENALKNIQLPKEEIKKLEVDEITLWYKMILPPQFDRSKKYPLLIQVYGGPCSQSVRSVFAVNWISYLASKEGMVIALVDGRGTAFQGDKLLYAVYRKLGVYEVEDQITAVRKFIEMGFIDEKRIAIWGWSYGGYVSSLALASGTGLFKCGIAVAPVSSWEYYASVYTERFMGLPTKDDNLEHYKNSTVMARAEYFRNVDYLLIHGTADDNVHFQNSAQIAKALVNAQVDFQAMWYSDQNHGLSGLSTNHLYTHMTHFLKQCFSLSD
Briefly: direct ELISA: rFAP directly coated. Background: ELISA stands for enzyme-linked immunosorbent assay.

Test [3] deals with T2, recombinant human Fibroblast Activation …. Briefly: capture ELISA: His-tagged rFAP captured by coated anti-His antibody (sFAP). How it is done: (§1) For the capture ELISA, the microplates were coated with mouse anti-His monoclonal antibody (Clontech) diluted to a concentration of 3 μg/ml in PBS, the plates were then blocked, FAP or BSA were diluted to a concentration of 2 μg/ml in PBS and added to the plates to be captured. The binding efficiency of the antibodies was then tested.
The EC₅₀ values were estimated by a non-linear regression using GraphPad Prism (San Diego, USA) software.

Test [4] has the same target. Briefly: direct ELISA: rFAP directly coated (FAP).
The target is the same in test [5]. Briefly: direct ELISA: rFAP coated directly on the plate, antibody titrated, OD 450 nm; the curve reaches no upper plateau [continued) H].
Test [6] deals with T3, bovine serum albumin (BSA) (bovine, UniProt P02769 25-607).
T3 construct: Negative control antigen in the ELISAs
T3 sequence (P02769 25-607 limits assumed): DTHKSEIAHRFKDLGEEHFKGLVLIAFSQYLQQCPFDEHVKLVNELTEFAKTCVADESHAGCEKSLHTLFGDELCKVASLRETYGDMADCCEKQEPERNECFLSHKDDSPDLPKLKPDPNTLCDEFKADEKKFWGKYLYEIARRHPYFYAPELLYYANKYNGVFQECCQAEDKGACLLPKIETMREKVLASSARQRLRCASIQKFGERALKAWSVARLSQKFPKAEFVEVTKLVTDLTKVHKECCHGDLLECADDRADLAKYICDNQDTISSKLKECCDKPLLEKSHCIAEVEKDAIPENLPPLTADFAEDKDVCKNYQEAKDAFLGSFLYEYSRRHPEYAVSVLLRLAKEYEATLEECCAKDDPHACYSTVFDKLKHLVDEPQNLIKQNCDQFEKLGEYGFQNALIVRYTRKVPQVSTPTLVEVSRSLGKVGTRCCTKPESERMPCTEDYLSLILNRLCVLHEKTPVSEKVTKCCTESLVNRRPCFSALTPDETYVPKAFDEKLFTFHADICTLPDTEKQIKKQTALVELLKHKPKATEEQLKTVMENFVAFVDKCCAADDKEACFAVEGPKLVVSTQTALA
Briefly: direct ELISA: BSA coated directly on the plate [continued) H].

In test [7] the target is T2, recombinant human Fibroblast Activation …. The test can be described thus: capture ELISA: His-tagged rFAP captured by coated anti-His antibody (anti-His+rFAP), antibody titrated, OD 450 nm; the curve reaches no upper plateau [continued) G]. The procedure:
as §1

For test [8] the target is unchanged. The test can be described thus: capture ELISA: His-tagged rFAP captured by coated anti-His antibody (anti-His+rFAP), antibody titrated, OD 450 nm [continued) I]. How it is done:
as §1

The target is the same in test [9]. Briefly: direct ELISA: rFAP coated directly on the plate, antibody titrated, OD 450 nm [continued) J].
The target of test [10] is T3, bovine serum albumin (BSA). Briefly: direct ELISA: BSA coated directly on the plate [continued) F].
In test [11] the target is T2, recombinant human Fibroblast Activation …. The test can be described thus: capture ELISA: His-tagged rFAP captured by coated anti-His antibody (anti-His+rFAP), antibody titrated, OD 450 nm [continued) E]. The procedure:
as §1

Test [12] shares this target. The test can be described thus: direct ELISA: rFAP coated directly on the plate, antibody titrated, OD 450 nm [continued) F].
The target of test [13] is T4, FAP peptide 125 (497-ALKNIQLPKEEIKKL-511) (human).
T4 construct: Linear 15-mer spotted on a nitrocellulose membrane
T4 peptide: ALKNIQLPKEEIKKL
Briefly: pepscan, spotted 15-mer peptides. The procedure: (§2) Binding capacity of the antibodies was tested on these peptides spotted onto a nitrocellulose membrane (JPT Peptide Technologies, Berlin, Germany) and using HRP-conjugated donkey anti-human IgG secondary antibody (Jackson immunoResearch, Newmarket, UK) followed by detection of HRP activity (FIGS. 4A and C). In brief, epitope mapping was performed using scans of overlapping peptides. The entire sequences of FAP were synthesized as a total of 188 linear 15-mer peptides with an 11 amino acid overlap between individual peptides. Those peptides were spotted onto nitrocellulose membranes (JPT Peptide Technologies, Berlin, Germany). The membrane was activated for 5 min in methanol and washed in TBS for 10 min at RT. Non-specific binding sites were blocked for 2 h at RT with Roti®-Block (Carl Roth GmbH+Co. KG, Karlsruhe, Germany). Human antibodies (1 μg/ml) were incubated in Roti®-Block for 3 h at RT. Binding of primary antibody was determined using HRP-conjugated donkey anti-human IgG secondary antibody. Blots were developed and evaluated using ECL and ImageQuant 350 detection (GE Healthcare, Otelfingen, Switzerland).

Test [14] has as its target T5, FAP peptide 126 (501-IQLPKEEIKKLEVDE-515) (human).
T5 construct: Linear 15-mer spotted on a nitrocellulose membrane
T5 peptide: IQLPKEEIKKLEVDE
Briefly: pepscan, spotted 15-mer peptides. The procedure:
as §2

Test [15] deals with T3, bovine serum albumin (BSA). Briefly: direct ELISA: BSA coated directly on the plate [continued) D].

B1: NI-206.22F7 (antibody, V domains shown)
VH: EVQLVETGGGVVQPGRSLRLSCAASGFSFSTHGMYWVRQPPGKGLEWVAVISYDGSDKKYADSVKGRFTISRDNSKNTVYLEMSSVRAEDTALYYCFCRRDAFDLWGQGTMVTVSS
VL: SYVLTQPPSVSVSPGQTARITCSGDALPKKYAYWYQQKSGQAPVLVIYEDTKRPSGIPERFSGSSSGTMATLTISGAQVEDEADYYCYSTDSSGNYWVFGGGTEVTVL
notes: Recombinant complete human IgG1
A word on the EC50: it is the concentration needed to bring the measured effect to its halfway point. On to B1, for which, in test [1], the half-maximal effective concentration (EC50) amounted to 0.12 nM. Also, the binding result in [2] is “no binding”.

B2: NI-206.17A6 (antibody, V domains shown)
VH: QVQLQESGPGLVRSTETLSLTCLVSGDSINSHYWSWLRQSPGRGLEWIGYIYYTGPTNYNPSLKSRVSISLGTSKDQFSLKLSSVTAADTARYYCARNKVFWRGSDFYYYMDVWGKGTTVTVSS
VL: EIVLTQSPGTLSLSLGERATLSCRASQSLANNYLAWYQQKPGQAPRLLMYDASTRATGIPDRFSGSGSGTDFTLTISRLEPEDFAVYYCQQFVTSHHMYIFGQGTKVEIK
notes: Recombinant complete human IgG1 with a kappa light chain
For B2, the EC50 in test [3] was found to be 50.2 nM; in test [4], 10.5 nM. The binding result in test [1] was “no binding”.

B3: NI-206.20A8 (antibody, V domains shown)
VH: EVQLVESGGGLVQPGGSLKLSCAGSGLDLSASAVHWVRQASGKGLEWIGRIRSKPNHYATTYLASVRGRFILSRDDSENTAYLQMNSLRTEDTAVYYCRIGILNSDHWGRGTLVTVSS
VL: QSVLTQPPSASGTPGQTVIISCSGSSSNLGRKTLNWYQQLPGAAPKLLIFKNDQRASGVPDRFSASKSGTSASLTISGLQSDDEADYYCGTWDDSLDNWVFGGGTKVTVL
notes: as for B1
In the case of B3, the EC50 in [5] was 86.5 nM; in test [3] it was 1.33 nM; in test [7] it was 118 nM; in test [4], 2.9 nM. Further, the binding result in test [6] and in test [1] was “no binding” in each case.

B4: NI-206.27E8 (antibody, V domains shown)
VH: EVQLVESGGGLVEPGGSLRLSCAASGFTFSDAWMNWVRQAPGKGLEWVGRIKTKSDGGTTDYAAPVRGRFSISRDDSKNTLFLEMNSLKTEDTAIYYCFITVIVVSSESPLDHWGQGTLVTVSS
VL: SYELTQPPSVSVSPGQTARITCSGDELPKQYAYWYQQKPGQAPVLVIYKDRQRPSGIPERFSGSSSGTTVTLTISGVQAEDEADYYCQSAYSINTYVIFGGGTKLTVL
notes: Recombinant complete human IgG1; Cy5-labelled in flow cytometry
As for B4, the concentration for a half-maximal effect (EC50) in test [3] came out at 3.36 nM; in [4], 0.33 nM. For the same molecule, the binding result in test [1] is “no binding”.

B5: NI-206.12G4 (antibody, V domains shown)
VH: EVQLVESGGGLVKPGGSLRLSCAASGFTFSDYYMSWIRQAPGKGLEWISYISSGSSYTNYADSVKGRFTISRDNAKKSVYLEVNGLTVEDTAVYYCARVRYGDREMATIGGFDFWGQGTLVTVSS
VL: SYELTQPPSVSVSPGQTARITCSGDALPKQYAYWYQQSPGQAPVLVIYKDSERPSGIPERFSGSSSGTTVTLTISGVQAEDEADYYCQSADSGGTSRIFGGGTKLTVL
notes: as for B4
Consider B5, for which the binding result in test [1] is given as “no binding”. Further, in test [4], the EC50 was found to be 1.4 nM.

B6: NI-206.6D3 (antibody, V domains shown)
VH: EVQLVESGGGLVKPGESLRLSCAASGFTFSKAWMNWVRQGPGKGLEWVGRVKSKTDGGTTDYAAPVKGRFTISRDDSKDTVFLQMNSLKTEDTAVYYCSIQFIVVGDRGRDDQYMDVWGKGTTVTVSS
VL: SYVLTQPPSVSVSPGQTARITCSGDALPKQYAFWYQQKPGQAPVIMIYKDNQRPSGIPERFSGSSSGTTVTLTISGVQTEDEADYYCQSADSTNTHVVFGGGTKLTVL
notes: as for B4
As for B6, the concentration for a half-maximal effect (EC50) in test [3] came out at 118 nM; in [8] it was 0.272 nM; in test [9], 3.54 nM; in test [4] it was 86.5 nM. The binding result in test [1] is given as “no binding”.

B7: NI-206.18H2 (antibody, V domains shown)
VH: QVQLQESGPRLVKPSETLSLTCTVSGYSISNGYYWGWIRQPPGQGLEWIASVWHSGNTYHNPSLKSRVTILVDTLKNQFSLNLKSVTAADTALYYCARSYTRNDVGAFETWGQGTMVTVSS
VL: SYELTQPPSVSVSPGQTARIACSGDELPKRYAYWYQQKSGQAPVLVMYEDTKRPSGIPERLSGSSSGTVTTLTISGAQVEDEADYYCYSTAPSGNHTFVFGTGTRVTVL
notes: as for B4
On to B7, for which the binding result in [10] was “no binding”; in test [1], “no binding”; in test [13], “binds”; in test [14], “binds”. For the same molecule, the half-maximal effective concentration (EC50) in test [3] turned out to be 0.272 nM; in test [11], 1.33 nM; in test [4] it was 3.54 nM; in test [12], 2.9 nM.

B8: NI-206.59B4 (antibody, V domains shown)
VH: QVQLVQSGAEVKKPGASVKVSCKTSGYTFTDYYIHWVRQAPGQGLEWMGWINPNRGGTNYAQKFQGRVTMTRDTSIATAYMELSRLRSDDTAVYYCATASLKIAAVGTFDCWGQGTLVTVSS
VL: SYELTQPPSVSVSPGQTARITCSGDALSKQYAFWFQQKPGQAPILVIYQDTKRPSGIPGRFSGSSSGTTVTLTISGAQADDEADYYCQSADSSGTYVFGTGTKVTVL
notes: as for B4
B8: the results for the concentration for a half-maximal effect (EC50) in test [3] and in test [4] were 0.044 nM and 0.096 nM, respectively. Besides, the binding result in test [1] and in [15] was “no binding” throughout.
